Data on 16 molecules can be found in patent US20110159022A1 (published 2011).

The target of one experiment is HLA-DR13 (DRB1*1301) (human). Nature of the experiment: competition ELISA, tracer biotin-B1 21-36.
Another experiment deals with HLA-DR7 (DRB1*0701) (human). The experiment is described as follows: competition ELISA, tracer biotin-YKL. (ELISA stands for enzyme-linked immunosorbent assay.)
A further experiment deals with HLA-DR4 (DRB1*0401) (human). The experiment is described as follows: competition ELISA, tracer biotin-HA 306-318.
For the next experiment, the target named is HLA-DRB5 (DRB5*0101) (human). Nature of the experiment: competition ELISA, tracer biotin-HA 306-318.
Another experiment deals with HLA-DR11 (DRB1*1101) (human). Nature of the experiment: competition ELISA, tracer biotin-HA 306-318.
The next experiment concerns the target HLA-DR1 (DRB1*0101) (human). The experiment is described as follows: competition ELISA, tracer biotin-HA 306-318.
The next experiment addresses T1, HLA-DP402 (DPB1*0402) (human, UniProt P20036 29-222, limits assumed).
T1 construct: also called DP*0402
The experiment is described as follows: competition ELISA, tracer biotin-Oxy 271-287.

The next experiment deals with HLA-DRB4 (DRB4*0101) (human). The experiment is described as follows: competition ELISA, tracer biotin-E2/E168.
The next experiment addresses HLA-DP401 (DPB1*0401) (human, UniProt P20036 29-222, limits assumed). The experiment is described as follows: competition ELISA, tracer biotin-Oxy 271-287.
The target of another experiment is HLA-DRB3 (DRB3*0101) (human). Nature of the experiment: competition ELISA, tracer biotin-LOL 191-210.
The target in another experiment is HLA-DR3 (DRB1*0301) (human). The experiment is described as follows: competition ELISA, tracer biotin-MT 2-16.
The target in another experiment is HLA-DR15 (DRB1*1501) (human). The experiment is described as follows: competition ELISA, tracer biotin-A3 152-166.

B1: MDK 14-28 (peptide)
peptide: LLALTSAVAKKKDKV
notes: synthetic 15-mer of the human midkine precursor; also called MDK4; peptide 14-28
With B1, the relative binding activity with HLA-DR13 (DRB1*1301) was 45 IC50 ratio to reference peptide; in the experiment with HLA-DR7 (DRB1*0701), 590 IC50 ratio to reference peptide; with HLA-DR4 (DRB1*0401) it was 401 IC50 ratio to reference peptide; with HLA-DRB5 (DRB5*0101), 0.1 IC50 ratio to reference peptide; with HLA-DR11 (DRB1*1101) it was 48 IC50 ratio to reference peptide; in the experiment with HLA-DR1 (DRB1*0101), 34 IC50 ratio to reference peptide.
For the molecule AEWAWGPCTPSSKDC (also called MDK7) [MDK 38-52], the relative binding activity in the experiment with HLA-DP402 (DPB1*0402) is 239 IC50 ratio to reference peptide; with HLA-DR4 (DRB1*0401) it was 1860 IC50 ratio to reference peptide; with HLA-DR11 (DRB1*1101), 923 IC50 ratio to reference peptide; with HLA-DR1 (DRB1*0101), 1300 IC50 ratio to reference peptide.
Consider QTQRIRCRVPCNWKK (also called MDK9) [MDK 64-78], for which the relative binding activity in the experiment with HLA-DRB4 (DRB4*0101) is 1160 IC50 ratio to reference peptide; in the experiment with HLA-DR7 (DRB1*0701) it was 2070 IC50 ratio to reference peptide; in the experiment with HLA-DR4 (DRB1*0401), 558 IC50 ratio to reference peptide; in the experiment with HLA-DRB5 (DRB5*0101), 61 IC50 ratio to reference peptide; in the experiment with HLA-DR11 (DRB1*1101) it was 504 IC50 ratio to reference peptide.
KEFGADCKYKFENWG (also called MDK12) [MDK 78-92]: the relative binding activity with HLA-DP402 (DPB1*0402) is 378 IC50 ratio to reference peptide; with HLA-DP401 (DPB1*0401) it was 167 IC50 ratio to reference peptide; with HLA-DRB3 (DRB3*0101) it was 226 IC50 ratio to reference peptide; with HLA-DR4 (DRB1*0401), 457 IC50 ratio to reference peptide; with HLA-DRB5 (DRB5*0101) it was 114 IC50 ratio to reference peptide; with HLA-DR11 (DRB1*1101) it was 800 IC50 ratio to reference peptide. Also, the relative binding activity with HLA-DR3 (DRB1*0301) is 1 IC50 ratio to reference peptide.
ETIRVTKPCTPKTKA (also called MDK18) [MDK 119-133]: the relative binding activity in the experiment with HLA-DR7 (DRB1*0701) was 819 IC50 ratio to reference peptide; with HLA-DR4 (DRB1*0401) it was 1290 IC50 ratio to reference peptide; in the experiment with HLA-DRB5 (DRB5*0101), 26 IC50 ratio to reference peptide; in the experiment with HLA-DR11 (DRB1*1101), 763 IC50 ratio to reference peptide; in the experiment with HLA-DR1 (DRB1*0101), 2 IC50 ratio to reference peptide.
With CKYKFENWGACDGGT (also called MDK13) [MDK 84-98], the relative binding activity is 49 IC50 ratio to reference peptide with HLA-DP402 (DPB1*0402), 52 IC50 ratio to reference peptide in the experiment with HLA-DP401 (DPB1*0401), 362 IC50 ratio to reference peptide with HLA-DR4 (DRB1*0401) and 292 IC50 ratio to reference peptide with HLA-DRB5 (DRB5*0101).

B2: MDK 9-23 (peptide)
peptide: LTLLALLALTSAVAK
notes: synthetic 15-mer of the human midkine precursor; also called MDK3; peptide 9-23
Regarding B2, the relative binding activity in the experiment with HLA-DP402 (DPB1*0402) was 29 IC50 ratio to reference peptide; with HLA-DP401 (DPB1*0401), 94 IC50 ratio to reference peptide; with HLA-DR7 (DRB1*0701), 13 IC50 ratio to reference peptide; with HLA-DR4 (DRB1*0401) it was 1 IC50 ratio to reference peptide; with HLA-DRB5 (DRB5*0101), 2 IC50 ratio to reference peptide; in the experiment with HLA-DR11 (DRB1*1101) it was 0.3 IC50 ratio to reference peptide. The relative binding activity is 0.2 IC50 ratio to reference peptide in the experiment with HLA-DR1 (DRB1*0101) and 5 IC50 ratio to reference peptide in the experiment with HLA-DR15 (DRB1*1501).

B3: MDK 110-124 (peptide)
peptide: ARYNAQCQETIRVTK
notes: synthetic 15-mer of the human midkine precursor; also called MDK17
As to B3, the relative binding activity is 6 IC50 ratio to reference peptide with HLA-DR4 (DRB1*0401), 15 IC50 ratio to reference peptide with HLA-DRB5 (DRB5*0101), 69 IC50 ratio to reference peptide with HLA-DR11 (DRB1*1101) and 10 IC50 ratio to reference peptide with HLA-DR1 (DRB1*0101).
CRVPCNWKKEFGADC (also called MDK10) [MDK 70-84]: the relative binding activity with HLA-DP401 (DPB1*0401) was 7 IC50 ratio to reference peptide; with HLA-DRB3 (DRB3*0101), 621 IC50 ratio to reference peptide; with HLA-DR4 (DRB1*0401) it was 1560 IC50 ratio to reference peptide; in the experiment with HLA-DR1 (DRB1*0101), 53 IC50 ratio to reference peptide.
Turning to CNWKKEFGADCKYKF (also called MDK11) [MDK 74-88], the relative binding activity is 877 IC50 ratio to reference peptide in the experiment with HLA-DRB3 (DRB3*0101); 714 IC50 ratio to reference peptide in the experiment with HLA-DRB5 (DRB5*0101); 1230 IC50 ratio to reference peptide with HLA-DR11 (DRB1*1101); 333 IC50 ratio to reference peptide in the experiment with HLA-DR1 (DRB1*0101); 2 IC50 ratio to reference peptide with HLA-DR3 (DRB1*0301).
On to GTLKKARYNAQCQET (also called MDK16) [MDK 105-119], for which the relative binding activity in the experiment with HLA-DR4 (DRB1*0401) was 492 IC50 ratio to reference peptide; in the experiment with HLA-DR11 (DRB1*1101), 1010 IC50 ratio to reference peptide; in the experiment with HLA-DR1 (DRB1*0101), 97 IC50 ratio to reference peptide.
On to KDKVKKGGPGSECAE (also called MDK6) [MDK 25-39], for which the relative binding activity with HLA-DR1 (DRB1*0101) is 1250 IC50 ratio to reference peptide.
ENWGACDGGTGTKVR (also called MDK14) [MDK 89-103]: the values for the relative binding activity in the experiment with HLA-DRB3 (DRB3*0101) and with HLA-DR1 (DRB1*0101) were 2330 IC50 ratio to reference peptide and 1460 IC50 ratio to reference peptide, respectively.

B4: MDK 4-18 (peptide)
peptide: RGFLLLTLLALLALT
notes: synthetic 15-mer of the human midkine precursor; also called MDK2; peptide 4-18
With B4, the relative binding activity with HLA-DP402 (DPB1*0402) was 18 IC50 ratio to reference peptide; in the experiment with HLA-DP401 (DPB1*0401) it was 6 IC50 ratio to reference peptide; with HLA-DRB3 (DRB3*0101), 37 IC50 ratio to reference peptide; in the experiment with HLA-DRB4 (DRB4*0101) it was 65 IC50 ratio to reference peptide; in the experiment with HLA-DR7 (DRB1*0701) it was 20 IC50 ratio to reference peptide; with HLA-DRB5 (DRB5*0101), 46 IC50 ratio to reference peptide. Moreover, the relative binding activity in the experiment with HLA-DR11 (DRB1*1101) was 94 IC50 ratio to reference peptide; with HLA-DR1 (DRB1*0101) it was 21 IC50 ratio to reference peptide; with HLA-DR15 (DRB1*1501), 19 IC50 ratio to reference peptide.
For the molecule GTKVRQGTLKKARYN (also called MDK15) [MDK 99-113], the relative binding activity was 74 IC50 ratio to reference peptide with HLA-DR13 (DRB1*1301), 215 IC50 ratio to reference peptide in the experiment with HLA-DRB5 (DRB5*0101) and 3000 IC50 ratio to reference peptide with HLA-DR1 (DRB1*0101).

B5: MDK 1-15 (peptide)
peptide: MQHRGFLLLTLLALL
notes: synthetic 15-mer of the human midkine precursor; also called peptide 1-15
As for B5, the relative binding activity is 19 IC50 ratio to reference peptide with HLA-DP402 (DPB1*0402); 20 IC50 ratio to reference peptide with HLA-DP401 (DPB1*0401); 267 IC50 ratio to reference peptide with HLA-DRB3 (DRB3*0101); 204 IC50 ratio to reference peptide with HLA-DRB4 (DRB4*0101); 49 IC50 ratio to reference peptide with HLA-DR7 (DRB1*0701); 161 IC50 ratio to reference peptide with HLA-DRB5 (DRB5*0101). Moreover, the relative binding activity with HLA-DR11 (DRB1*1101) is 7 IC50 ratio to reference peptide; in the experiment with HLA-DR1 (DRB1*0101), 21 IC50 ratio to reference peptide.
